The text below walks through data of US20140120109A1 (Regeneron, published 2014).

Experiment [1] has as its target T1, mouse TL1A, soluble, CHO-expressed, residues 76-252 of SEQ ID NO:250 with N-terminal His6-tag (mouse, UniProt Q5UBV8 76-252).
T1 construct: also called mTL1A; mTL1A (CHO)
T1 sequence: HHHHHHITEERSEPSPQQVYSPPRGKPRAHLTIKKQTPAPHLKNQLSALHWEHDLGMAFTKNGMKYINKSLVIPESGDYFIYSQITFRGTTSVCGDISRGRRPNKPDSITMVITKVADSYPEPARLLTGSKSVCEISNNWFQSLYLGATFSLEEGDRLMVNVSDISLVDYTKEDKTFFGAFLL
In words: SPR 25C, mAb captured. In short, it runs like this: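 Biacore T100 SPR with captured mAb and soluble TL1A/Fhm analyte; ka and kd fitted to a 1:1 model assuming monomeric TL1A. KD = kd/ka; t1/2 (min) = ln2/(60·kd).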

The target of experiment [2] is T2, full length human TL1A expressed on HEK293 cells (human, UniProt O95150 1-251).
T2 construct: also called HEK293/hTL1A; cell-surface hTL1A
T2 sequence: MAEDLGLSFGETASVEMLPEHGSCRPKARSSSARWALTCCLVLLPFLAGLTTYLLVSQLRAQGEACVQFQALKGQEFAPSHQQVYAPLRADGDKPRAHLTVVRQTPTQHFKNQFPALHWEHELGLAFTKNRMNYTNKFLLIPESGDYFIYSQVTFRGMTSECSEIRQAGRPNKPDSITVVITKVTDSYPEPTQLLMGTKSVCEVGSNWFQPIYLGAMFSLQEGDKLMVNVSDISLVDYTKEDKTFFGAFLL
In words: flow, HEK293/hTL1A, mAb 0.1 ug/ml + 1 ug/ml soluble hTL1A. On the procedure:
(§1) Human embryonic kidney 293 cells stably transfected to over-express cell-surface hTL1A were first stained in a flow cytometric experiment with eight anti-hTL1A antibodies at four concentrations (1, 0.1, 0.01, and 0.003 μg/ml). […] The lowest antibody concentration providing significant staining levels was then used in a competition binding experiment. A negative isotype control antibody (human IgG4) was used at 1 μg/ml to define the background signal. For the competition experiment, eight antibody samples, at the minimal concentrations identified above, were first treated with soluble hTL1A expressed from CHO cells at concentrations ranging from 0.03 μg/ml to 10 μg/ml. After pre-incubation for 30 min on ice, the antibody/hTL1A mixture was added to 293/HEK-hTL1A cells that had been isolated by centrifugation in a 96-well conical plate. After incubation for an additional 10 minutes on ice, the cells were washed. The secondary reagent, anti-h Fcγ-APC F(ab′)₂, was added to all wells at a 200-fold dilution to detect bound antibodies. Samples were incubated for 15 minutes on ice, away from light, and then washed. Cells were processed on an BD™ LSR II Flow Cytometer (BD Biosciences) to detect anti-hTL1A antibodies bound to the cell surface, and data were analyzed using FlowJo software (version 8.8.6; Tree Star Inc.). Maximum signal: Anti-hTL1A antibody binding in the absence of soluble hTL1A; Minimum signal: Signal recorded when […] of isotype control antibody was added in place of the anti-hTL1A antibody. NT: Not tested.

The target in experiment [3] is T2, full length human TL1A expressed on …. In words: flow, HEK293/hTL1A, mAb 0.1 ug/ml, no soluble hTL1A (maximum signal). On the procedure: as §1
The target is the same in experiment [4]. Briefly: flow, HEK293/hTL1A, mAb 1 ug/ml + 0.1 ug/ml soluble hTL1A. How it is done:
as §1

Experiment [5] has the same target. In words: flow, HEK293/hTL1A, mAb 1 ug/ml + 0.3 ug/ml soluble hTL1A. On the procedure:
as §1

Experiment [6] shares this target. In words: flow, HEK293/hTL1A, mAb 1 ug/ml, no soluble hTL1A (maximum signal). How it is done: as §1
Experiment [7] has as its target T3, full length rat TL1A expressed on HEK293 cells (rat, UniProt Q8K3Y7 1-252).
T3 sequence: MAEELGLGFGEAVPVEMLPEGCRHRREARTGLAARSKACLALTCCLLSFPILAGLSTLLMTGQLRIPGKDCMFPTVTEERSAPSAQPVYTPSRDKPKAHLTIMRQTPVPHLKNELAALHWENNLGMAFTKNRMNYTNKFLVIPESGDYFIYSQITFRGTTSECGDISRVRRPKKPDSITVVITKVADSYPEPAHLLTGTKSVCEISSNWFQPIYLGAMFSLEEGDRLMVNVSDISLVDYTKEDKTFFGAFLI
Briefly: cell-based or functional assay.

B1: H4H1805N (antibody, human IgG4 S228P, V domains shown)
VH: QVQLQQWGAGLLKPSETLSLTCAVYGGSFTGFYWSWIRQPPGKGLEWIGEINHRGNTNYNPSLKSRVTMSVDTSKNQFSLNMISVTAADTAMYFCASPFYDFWSGSDYWGQGTLVTVSS
VL: DIMLTQTPLTSPVTLGQPASISCKSSQSLVHSDGNTYLSWLQQRPGQPPRLLFYKISNRFSGVPDRFSGSGAGTDFTLKISRVEAEDVGVYYCMQATQFPLTFGGGTKVEIK
notes: human IgG4(S108P) form of H2M1805N
On to B1, for which, in experiment [1], the binding result was “no binding (tested: up to 100 nM)”. The MFI in experiment [2] was 25.1; in experiment [3] it was 158.

B2: H4H1742P (antibody, human IgG4 S228P, V domains shown)
VH: EVQLVESGGGLVQPGGSLRLSCAASGFTFSNYVMNWVRQAPGKGLEWVSVISGSGGSTHYADSVKGRFTISRDNSKDALYLQMNSLRAEDTAVYYCAKGPLEAYYYYNGMDVWGQGTTVTVSS
VL: DIQLTQSPSFLSASVGDRVTITCWASQAISSYLAWYQHKPGRAPKLLIYSTSTLQSGVPSRFSGSGSGTEFTLTISSLQPEDFATYYCQQLNSYPTFGQGTKLEIK
For B2, the MFI in experiment [4] came to 79.4; in experiment [5], 44.7; in experiment [6] it was 126.

B3: H4H1817N (antibody, human IgG4 S228P, V domains shown)
VH: QVQLQQWGAGLLKPSETLSLTCAVSGGSFSDYFWTWIRQPPGKGLEWIGEISHSGRTNYNPSLKSRVTISVDTSMSQFSLKMTSVTAADSAVYYCARDYPNWVFDYWGQGTLVTVSS
VL: EIELTQSPGTLSLSPGEGATLSCRASQSVFNSYLAWYQQKPGQAPRLLIYGASRRATGIPDRFSGSGSGTDFTLTISRLEPGDFAVYFCQQYGNSPLTFGGGTKVEIK
notes: human IgG4(S108P) form of H2M1817N
B3: in experiment [1], the binding result is on record as “no binding (tested: up to 100 nM)”. Besides, in experiment [7], the “IC50, reporter + 10,000 TL1A cells” value was determined as 95 nM. In addition, the MFI in experiment [4] was 97.2; in experiment [5], 23.6; in experiment [6], 110.

B4: H4H1704N (antibody, human IgG4 S228P, V domains shown)
VH: EVQLVESGGGLVQPGGSLRLSCAVSGFTFSSYWMSWVRQAPGKGLEWVANIKEDGSEKNYVDSVKGRFTLSSDNAKNSLYLQMNSLRAEDTAVYYCAREDYDSYYKYGMDVWGQGTAVIVSS
VL: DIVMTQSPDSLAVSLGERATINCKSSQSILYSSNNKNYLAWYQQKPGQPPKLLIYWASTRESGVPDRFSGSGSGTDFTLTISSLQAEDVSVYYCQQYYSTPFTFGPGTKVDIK
notes: human IgG4(S108P) form of H2M1704N
In experiment [1], B4 registered a dissociation constant (Kd) of 0.194 nM and a t1/2 of 46 min. Moreover, in experiment [2], the MFI is 26. Also, the MFI in experiment [3] amounted to 116.

B5: H4H1725P (antibody, human IgG4 S228P, V domains shown)
VH: QVQLVQSGAEVKKPGASVKVSCKASGYTFTGYYMHWVRQAPGQGLEWMGWIKPKSGGTNYVQKFQGRVTMTRDTSINTAYMELNNLKSDDTAVYYCATGGSQDASDFWGQGTMVTVSS
VL: DIQMTQSPSSVSASVGGRVTITCRASQDISIWLAWYQQKPGKAPNLLIYAASSLQSGVPSRFSGSGSGTDFTLTISSLQPEDFATYYCQQADSFPLTFGGGTKVEIK
Turning to B5, the “IC50, reporter + 10,000 TL1A cells” value in experiment [7] was 190 nM. The MFI came out at 29.2 in experiment [2] and 211 in experiment [3].

B6: H4H1804N (antibody, human IgG4 S228P, V domains shown)
VH: QVQLHQWGAGLLKPSETLSLTCAVSGVSFSDYHWAWIRQSPGKGLEWIGDINHRGRTNYNPSLKSRVTISLDTSGNPFSLKLTSVTAADTAVYYCARDFPNWVFDSWGQGILVTVSS
VL: EIVLSQSPGTLSLSPGERATLSCRASQSVSSSFLAWYQQYPGQAPRLLIYGASRRATGIPDRFRGSGSGTDFTLTISRLEPEDFAVYYCQQYGSSPLTFGGGTKVENK
notes: human IgG4(S108P) form of H2M1804N
On to B6, for which the “IC50, reporter + 10,000 TL1A cells” value in experiment [7] stood at 3.99 nM. The MFI in experiment [2] is 33.7; in experiment [3], 127.

B7: H4H1745P (antibody, human IgG4 S228P, V domains shown)
VH: EVQLVESGGGLVQPGGSLRLSCAASGFTFSSYAMTWVRQAPGKGLEWVSGVSGRGGSTYYADSVKGRFTISRDNSKNTLYLQMNSLRAEDTAVYYCAYWDISSFDYWGQGTLVTVSS
VL: DIQLTQSPSFLSASVGDRVTITCWASQGISTYLAWYQQKPGKTPKLLIYAASTLQSGVPSRFSGSGSGTDFTLTISSLQPEDFATYYCQQFNSYPLTFGGGTKVEIK
Turning to B7, the MFI in experiment [4] came to 93.1; in experiment [5], 115; in experiment [6], 87.2.

B8: H4H1681N (antibody, human IgG4 S228P, V domains shown)
VH: EVQLLESGGGLVQPGKSLRLSCAVSGFTFSTYGMNWVRQAPGKGLEWVSSISGTGRTTYHADSVQGRFTVSRDNSKNILYLQMNSLRADDTAVYFCTKERGDYYYGVFDYWGQGTLVTVSS
VL: DIQMTQSPSTLSASVGDRVTITCRASQTISSWLAWYQQTPEKAPKLLIYAASNLQSGVPSRFSGSGSGTEFTLTISSLQPDDFATYYCQQYHRSWTFGQGTKVEIT
In the case of B8, in experiment [1], the binding result is “no binding (tested: up to 100 nM)”. In addition, the MFI in experiment [4] came to 327; in experiment [5] it was 236; in experiment [6] it was 320.
